Conditions in all cases: both partners purified
The target of assay [1] is T1, HD-PTP(1–361) (human, UniProt Q9H3S7 1-361).
T1 construct: also called HD-PTP Bro1 domain; PTPN23; source: E. coli BL21(DE3) RIL, purified (Ni-NTA, TEV protease, gel filtration); not shown: (His)6, N-terminal, cleaved
T1 sequence (looked up): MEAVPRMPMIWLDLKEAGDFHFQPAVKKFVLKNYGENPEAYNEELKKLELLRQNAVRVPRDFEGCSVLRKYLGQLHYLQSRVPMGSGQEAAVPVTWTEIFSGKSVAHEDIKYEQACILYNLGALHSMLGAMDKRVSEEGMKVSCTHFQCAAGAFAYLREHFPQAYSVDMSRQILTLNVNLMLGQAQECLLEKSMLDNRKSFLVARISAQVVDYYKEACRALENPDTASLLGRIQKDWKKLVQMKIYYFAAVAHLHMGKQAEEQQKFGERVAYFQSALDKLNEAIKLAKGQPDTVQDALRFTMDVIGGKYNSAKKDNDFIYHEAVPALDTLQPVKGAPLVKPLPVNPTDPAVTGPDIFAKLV
Put plainly: SEC; Superose 6 10/300 GL gel filtration column; mixture of HD-PTP(1–361) and STAM2 fragment; peak fractions analysed by SDS-PAGE and Coomassie staining. In general terms: Size exclusion chromatography separates by hydrodynamic size, large species first.

Assay [2] concerns the target T1, HD-PTP(1–361). Put plainly: ITC; 0.5 mM peptide titrated into 50 μM protein; iTC200; 2°C as printed; 20 mM Tris-HCl (pH 7.5), 100 mM NaCl. (ITC needs no label: the signal is the heat of the interaction.)
Another assay addresses T2, HD-PTP(1–361;T145R) (human, UniProt Q9H3S7 1-361, T145R).
T2 construct: source: E. coli BL21(DE3) RIL, purified (Ni-NTA, gel filtration)
T2 sequence (looked up): T1 sequence (looked up) with T145R
The description is as above.

For another assay, the target named is T3, HD-PTP(1–361;T145K) (human, UniProt Q9H3S7 1-361, T145K).
T3 construct: source: E. coli BL21(DE3) RIL, purified (Ni-NTA, gel filtration)
T3 sequence (looked up): T1 sequence (looked up) with T145K
The assay is described as above.

The target in assay [3] is T4, HD-PTP(1–361) with T145A substitution (human, UniProt Q9H3S7 1-361, T145A).
T4 construct: source: E. coli BL21(DE3) RIL, purified (Ni-NTA, gel filtration)
T4 sequence (looked up): T1 sequence (looked up) with T145A
Described as above.

Numbering of substitutions follows the chain as printed.

B1: STAM2(311–370) (domain or fragment)
chain: not shown
notes: source: E. coli BL21(DE3) RIL, purified (Ni-NTA, gel filtration)
On to B1, for which the binding result with HD-PTP(1–361) [1] is reported as “binds”.

B2: STAM2(260–370) (domain or fragment)
chain: not shown
notes: STAM2, human, core region, residues 260–370; also called STAM2 core region containing residues 260–370; signal-transducing adaptor molecule 2; source: E. coli BL21(DE3) RIL, purified (Ni-NTA, gel filtration)
Turning to B2, the binding result in the assay with HD-PTP(1–361) [1] is listed as “binds”.

B3: CHMP4B(207–224) (peptide, UniProt Q9H444 207-224, looked up)
peptide: KEEEDDDMKELENWAGSM
notes: CHMP4B, residues 207–224 (18-mer; the polypeptide terminates with Met224); also called CHMP4B peptide of 18-mer (residues 207–224); charged multivesicular body protein 4B; source: synthetic peptide, bought: Peptron (Korea)
Usually Kd stands for a measure of binding affinity in units of concentration. A high value points to a looser complex. Regarding B3, the dissociation constant (Kd) (with HD-PTP(1–361) [2]; in the assay with HD-PTP(1–361;T145R); with HD-PTP(1–361;T145K); in assay [3]) was less than 8 µM each time.
